Experimental data published in US20210000895A1 (RHODE ISLAND HOSPITAL, published 2021).

Target: CD4 receptor on primary human CD4+ T lymphocytes (human, UniProt P01730 26-458)
Assay: cell-based or functional assay

B1: IL-16/Lamp2b fusion protein (Interleukin (IL)-16 C-terminal 20 amino acid domain fused to the N-terminus of lysosome-associated membrane protein 2 variant b), … (other)
chain: GNSTMGSGTIVIRRKSLQSKETTAAGDSGSGSGSGGSSLELNLTDSENATCLYAKWQMNFTVRYETTNKTYKTVTISDHGTVTYNGSICGDDQNGPKIAVQFGPGFSWIANFTKAASTYSIDSVSFSYNTGDNTTFPDAEDKGILTVDELLAIRIPLNDLFRCNSLSTLEKNDVVQHYWDVLVQAFVQNGTVSTNEFLCDKDKTSTVAPTIHTTVPSPTTTPTPKEKPEAGTYSVNNGNDTCLLATMGLQLNITQDKVASVININPNTTHSTGSCRSHTALLRLNSSTIKYLDFVFAVKNENRFYLKEVNISMYLVNGSVFSIANNNLSYWDAPLGSSYMCNKEQTVSVSGAFQINTFDLRVQPFNVTQGKYSTAQECSLDDDTILIPIIVGAGLSGLIIVIVIAYVIGRRKSYAGYQTLGSGYPYDVPDYA
Tat protein delivery to rCD4+T lymphocytes (Western blot of intracellular Tat), EXO^CD4-Tat exosomes compared to EXO-Tat exosomes: 20 fold
